Source: patent US11278600B2, “Human alpha-galactosidase variants” (Codexis, Inc., priority 2014, dated 2022)

B1: 549 (protein)
chain: LDNGLARTPTMGWLHWERFMCNLDCQEEPDSCISEKLFMEMAERMVSEGWKDAGYEYLCIDDCWMAPQRDSEGRLQADPQRFPHGIRQLANHVHSKGLKLGIYADVGNKTCAGFPGSFGYYDIDAQTFADWGVDLLKFDGCYCDSLENLADGYKHMSLALNRTGRSIVYSCEWPLYMWPFQKPNYTEIRQYCNHWRNFADIDDSWASIKSILDWTSRNQERIVDVAGPGGWNDPDMLVIGNFGLSWDQQVTQMALWAIMAAPLFMSNDLRHISPQAKALLQDKDVIAINQDPLGQQGYQLRKGDNFEVWERPLSGDAWAVAIINRQEIGGPRSYTIPVASLGKGVACNPACFITQLLPVKRQLGFYNWTSRLKSHINPTGTVLLQLENTMQMSLKDLL
modifications: Synthetic Polypeptide sequence of Variant No. 549 of mature Human GLA
B2: 551 (protein)
chain: LDNGLARTPTMGWLHWERFMCNLDCQEEPDSCISEKLFMEMAERMVSEGWKDAGYEYLCIDDCWMAPQRDSEGRLQADPQRFPHGIRQLANHVHSKGLKLGIYADVGNKTCAGFPGSFGYYDIDAQTFADWGVDLLKFDGCYCDSLENLADGYKHMSLALNRTGRSIVYSCEWPLYMWPFQKPNYTEIRQYCNHWRNFADIDDSWASIKSILDWTSRNQERIVDVAGPGGWNDPDMLVIGNFGLSWDQQVTQMALWAIMAAPLFMSNDLRHISPQAKALLQDKDVIAINQDPLGTQGYQLRKGDNFEVWERPLSGDAWAVAIINRQEIGGPRSYTIPVASLGKGVACNPACFITQLLPVKRQLGFYNWTSRLKSHINPTGTVLLQLENTMQMSLKDLL
modifications: Synthetic Polypeptide sequence of Variant No. 551 of mature Human GLA
B3: 517 (protein)
chain: LQNGLARTPTMGWLHWERFMCNLDCQEEPDSCISEKLFMEMAERMVSEGWKDAGYEYLCIDDCWMAPQRDSEGRLQADPQRFPHGIRQLANHVHSKGLKLGIYADVGNKTCAGFPGSFGYYDIDAQTFADWGVDLLKFDGCYCDSLENLADGYKHMSLALNRTGRSIVYSCEWPLYMWPFQKPNYTEIRQYCNHWRNFADIDDSWASIKSILDWTSRNQERIVDVAGPGGWNDPDMLVIGNFGLSWDQQVTQMALWAIMAAPLFMSNDLRHISPQAKALLQDKDVIAINQDPLGKQGYQLRKGDNFEVWERPLSGDAWAVAIINRQEIGGPRSYTIPVASLGKGVACNPACFITQLLPVKRQLGFYNWTSRLKSHINPTGTVLLQLENTMQMSLKDLL
modifications: Synthetic Polypeptide sequence of Variant No. 517 of mature Human GLA
B4: 553 (protein)
chain: LDNGLARTPTMGWLHWERFMCNLDCQEEPDSCISEKLFMEMAERMVSEGWKDAGYEYLCIDDCWMAPQRDSEGRLQADPQRFPHGIRQLANHVHSKGLKLGIYADVGNKTCAGFPGSFGYYDIDAQTFADWGVDLLKFDGCYCDSLENLADGYKHMSLALNRTGRSIVYSCEWPLYMWPFQKPNYTEIRQYCNHWRNFADIDDSWASIKSILDWTSRNQERIVDVAGPGGWNDPDMLVIGNFGLSWDQQVTQMALWAIMAAPLFMSNDLRHISPQAKALLQDKDVIAINQDPLGKQGYQLRKGDNFEVWERPLSGDQWAVAIINRQEIGGPRSYTIPVASLGKGVACNPACFITQLLPVKRQLGFYNWTSRLKSHINPTGTVLLQLENTMQMSLKDLL
modifications: Synthetic Polypeptide sequence of Variant No. 553 of mature Human GLA
B5: 552 (protein)
chain: LDNGLARTPTMGWLHWERFMCNLDCQEEPDSCISEKLFMEMAERMVSEGWKDAGYEYLCIDDCWMAPQRDSEGRLQADPQRFPHGIRQLANHVHSKGLKLGIYADVGNKTCAGFPGSFGYYDIDAQTFADWGVDLLKFDGCYCDSLENLADGYKHMSLALNRTGRSIVYSCEWPLYMWPFQKPNYTEIRQYCNHWRNFADIDDSWASIKSILDWTSRNQERIVDVAGPGGWNDPDMLVIGNFGLSWDQQVTQMALWAIMAAPLFMSNDLRHISPQAKALLQDKDVIAINQDPLGKQGYQLRKGDNFEVWERPLSGDDWAVAIINRQEIGGPRSYTIPVASLGKGVACNPACFITQLLPVKRQLGFYNWTSRLKSHINPTGTVLLQLENTMQMSLKDLL
modifications: Synthetic Polypeptide sequence of Variant No. 552 of mature Human GLA
B6: 550 (protein)
chain: LDNGLARTPTMGWLHWERFMCNLDCQEEPDSCISEKLFMEMAERMVSEGWKDAGYEYLCIDDCWMAPQRDSEGRLQADPQRFPHGIRQLANHVHSKGLKLGIYADVGNKTCAGFPGSFGYYDIDAQTFADWGVDLLKFDGCYCDSLENLADGYKHMSLALNRTGRSIVYSCEWPLYMWPFQKPNYTEIRQYCNHWRNFADIDDSWASIKSILDWTSRNQERIVDVAGPGGWNDPDMLVIGNFGLSWDQQVTQMALWAIMAAPLFMSNDLRHISPQAKALLQDKDVIAINQDPLGSQGYQLRKGDNFEVWERPLSGDAWAVAIINRQEIGGPRSYTIPVASLGKGVACNPACFITQLLPVKRQLGFYNWTSRLKSHINPTGTVLLQLENTMQMSLKDLL
modifications: Synthetic Polypeptide sequence of Variant No. 550 of mature Human GLA
B7: 555 (protein)
chain: LDNGLARTPTMGWLHWERFMCNLDCQEEPDSCISEKLFMEMAERMVSEGWKDAGYEYLCIDDCWMAPQRDSEGRLQADPQRFPHGIRQLANHVHSKGLKLGIYADVGNKTCAGFPGSFGYYDIDAQTFADWGVDLLKFDGCYCDSLENLADGYKHMSLALNRTGRSIVYSCEWPLYMWPFQKPNYTEIRQYCNHWRNFADIDDSWASIKSILDWTSRNQERIVDVAGPGGWNDPDMLVIGNFGLSWDQQVTQMALWAIMAAPLFMSNDLRHISPQAKALLQDKDVIAINQDPLGKQGYQLRKGDNFEVWERPLSGDAWAVAIINRQEIGGPRSYTIPVASLGKAVACNPACFITQLLPVKRQLGFYNWTSRLKSHINPTGTVLLQLENTMQMSLKDLL
modifications: Synthetic Polypeptide sequence of Variant No. 555 of mature Human GLA
B8: 554 (protein)
chain: LDNGLARTPTMGWLHWERFMCNLDCQEEPDSCISEKLFMEMAERMVSEGWKDAGYEYLCIDDCWMAPQRDSEGRLQADPQRFPHGIRQLANHVHSKGLKLGIYADVGNKTCAGFPGSFGYYDIDAQTFADWGVDLLKFDGCYCDSLENLADGYKHMSLALNRTGRSIVYSCEWPLYMWPFQKPNYTEIRQYCNHWRNFADIDDSWASIKSILDWTSRNQERIVDVAGPGGWNDPDMLVIGNFGLSWDQQVTQMALWAIMAAPLFMSNDLRHISPQAKALLQDKDVIAINQDPLGKQGYQLRKGDNFEVWERPLSGDAWAVAIINRQEIGGPRSYTIPVASLGKGVGCNPACFITQLLPVKRQLGFYNWTSRLKSHINPTGTVLLQLENTMQMSLKDLL
modifications: Synthetic Polypeptide sequence of Variant No. 554 of mature Human GLA

Tests used:
Format in all cases: biochemical
[1] = HTP-analysis of yeast culture supernatants, no challenge (MUGal hydrolysis); settings: activity of the variant/activity of Rd3BB (SEQ ID NO: 13)
How it was run: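 GLA variants were expressed in INVSc1 yeast grown in SD-Ura broth with glucose at 30° C., and culture supernatants were collected after 66-84 h. Supernatant was mixed with McIlvaine buffer pH 4.8 and MUGal (2 mM stock) in 50 mM citrate, 200 mM KCl, pH 4.6, incubated at 37° C. for 30-180 minutes, then quenched with sodium carbonate.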

[2] = HTP-analysis of supernatants pretreated with acid (MUGal hydrolysis); settings: activity of the variant/activity of Rd3BB (SEQ ID NO: 13); challenge at pH 3.7
How it was run: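 Supernatants from INVSc1 yeast secreting GLA variants were challenged at 37° C. for 1-3 h in McIlvaine buffer at pH 3.3-4.3. Residual activity was then measured on 4 mM MUGal substrate stock at pH 4.8 with citrate buffer pH 4.3, over 30-180 min at 37° C. Reactions were quenched with sodium carbonate and read by fluorescence (Ex 355/Em 448 nm).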

[3] = HTP-analysis of supernatants pretreated with base (MUGal hydrolysis); settings: activity of the variant/activity of Rd3BB (SEQ ID NO: 13); challenge at pH 9.7
How it was run: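 Fluorescence of released 4-MU (Ex 355 nm, Em 448 nm) after carbonate quench reports MUGal hydrolysis by GLA variants secreted from INVSc1 yeast. Before the acidic (pH 4.3-4.8) 30-180 min reaction at 37° C, supernatants had been pre-incubated at pH 7.0-9.7 for 1-18 h at 37° C.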

| Molecule | Relative Activity of GLA Variants After No Challenge (NC) [1] | Relative Activity of GLA Variants After Challenge at pH 3.7 [2] | Relative Activity of GLA Variants After Challenge at pH 9.7 [3] |
| --- | --- | --- | --- |
| B1 | + (+ = 1.5 to 5 relative activity over Rd3BB (SEQ ID NO: 13)) | ++ (++ = >5 to 10 relative activity over Rd3BB (SEQ ID NO: 13)) | ++ (++ = >5 to 10 relative activity over Rd3BB (SEQ ID NO: 13)) |
| B2 | + (+ = 1.5 to 5 relative activity over Rd3BB (SEQ ID NO: 13)) | + (+ = 1.5 to 5 relative activity over Rd3BB (SEQ ID NO: 13)) | ++ (++ = >5 to 10 relative activity over Rd3BB (SEQ ID NO: 13)) |
| B3 | + (+ = 1.5 to 5 relative activity over Rd3BB (SEQ ID NO: 13)) | + (+ = 1.5 to 5 relative activity over Rd3BB (SEQ ID NO: 13)) | + (+ = 1.5 to 5 relative activity over Rd3BB (SEQ ID NO: 13)) |
| B4 | + (+ = 1.5 to 5 relative activity over Rd3BB (SEQ ID NO: 13)) | + (+ = 1.5 to 5 relative activity over Rd3BB (SEQ ID NO: 13)) | ++ (++ = >5 to 10 relative activity over Rd3BB (SEQ ID NO: 13)) |
| B5 | + (+ = 1.5 to 5 relative activity over Rd3BB (SEQ ID NO: 13)) | + (+ = 1.5 to 5 relative activity over Rd3BB (SEQ ID NO: 13)) | ++ (++ = >5 to 10 relative activity over Rd3BB (SEQ ID NO: 13)) |
| B6 | + (+ = 1.5 to 5 relative activity over Rd3BB (SEQ ID NO: 13)) | + (+ = 1.5 to 5 relative activity over Rd3BB (SEQ ID NO: 13)) | ++ (++ = >5 to 10 relative activity over Rd3BB (SEQ ID NO: 13)) |
| B7 | + (+ = 1.5 to 5 relative activity over Rd3BB (SEQ ID NO: 13)) | + (+ = 1.5 to 5 relative activity over Rd3BB (SEQ ID NO: 13)) | + (+ = 1.5 to 5 relative activity over Rd3BB (SEQ ID NO: 13)) |
| B8 | + (+ = 1.5 to 5 relative activity over Rd3BB (SEQ ID NO: 13)) | + (+ = 1.5 to 5 relative activity over Rd3BB (SEQ ID NO: 13)) | ++ (++ = >5 to 10 relative activity over Rd3BB (SEQ ID NO: 13)) |
